Experimental data reported in a protein production outcome set (Wang et al. 2014).

Experiment: label from the status in PepcDB records

Row | Sequence | protein production
1 | MVTQEQRRRQLAREKFLRQQQRRTSARRKARMRNAAIASVLGVILIGSVALYTTGVVLGDDDDKTNAGAEVTPSASAPSKAPDPCDKPADGKVKTQTWKKEPAMTVDKSAKYTMKLATTCGDIDLALKADAAPHTVNSFDFLAGKGYFDHTKCHRLTTEGIYVLQCGDPTAQGNGGPGYNIPDENLKDKSLKDNVYPAGTVAMANTGQPDSGGSQFFLVYQDSQLPPSYTPFGTVSKEGMTVLKKIASAGAQPADPTTGNTAPNATVVIDKATVSKS | failed
2 | MVVANDLSSKILPRVLIVSRRTLRKNKYVDFVGEYHLDLIVSSGAVPVIVPRVNGIHSMLQSFEPIHGVLLCEGEDVDPSLYADDELSDLSPEDMEEIKKAHAEDMTIDREKDSIELTLARLCLERNIPFLGICRGSQILNVAAGGTLYQDIDKELGTTMTTTNHIDYDNYDGHRHEARIVEETPLHKLFEEMEIMVNSYHHQGVKRLAQRFVPMAYAPDGLIEGFYDPNRYDPKEGQFLMGLQFHPERMRLPGSDEFDYPGCALVYQEFVKAVIAFQKKQVNATQVEMKRKTTTLVKSFSQAEFLEVRDSFVLHTYRLYVLPLNIGFSDMAE | failed
3 | MVVLAVLLPVVFGALLLLGLPRALGVLGAGLSFLLNLYLFLTHPGGVAHAFQAPLLPGAGVYWAFGLDGLSALFFLTIALTVFLGALVARVEGRFLGLALLMEGLLLGLFAARDLLVFYVFFEAALIPALLMLHLYGGEGRTRALYTFVLFTLVGSLPMLAAVLGARLLSGSPTFLLEDLLAHPLQEEAAFWVFLGFALAFAIKTPLFPLHAWLPPFHQENHPSGLADALGTLYKVGVFAFFRFAIPLAPEGFAQAQGLLLFLAALSALYGAWVAFAAKDFKTLLAYAGLSHMGVAALGVFSGTPEGAMGGLYLLAASGVYTGGLFLLAGRLYERTGTLEIGRYRGLAQSAPGLAALALILFLAMVGLPGLSGFPGEFLTLLGAYKASPWLAALAFLSVIASAAYALTAFQKTFWEEGGSGVKDLAGAEWGFALLSVLALLLMGVFPGYFARGLHPLAEAFAKLLGGGA | failed
4 | MVWGKGLARRLYGLTGVVWSKYLDIDERGRLIVKLKGYKIDIAKLVSDKQLPGAHIRILPIIRYMMDQVYEAFMEAFRKFGYKGAFKPVYPLKSNSTPIVVDTIWRYGIKYSWGFNAGTYPEVKLISKYINEKPRLLVVDGIKDNKLLDLLSKMCDSWEIIVDIESMRDADLLSKYQDLNIGLRVKVTSKSSGLWSHSSGLDSKFGLLINTLDEMVEKHPWVPNRTVLLHVHAGSQITDKNRLEDIIRETIILYNNLVKTGFKNIRYIDFGGGLAYPYIEASNHVFSANYSLNEYAEILVKELVKSAENTPDIVFEGGRYIVAPHRITVTKIIDTRPYSTSDRGETSYPIVEEIKNTENIKELVYVSRKAREVITRLMLKFPINIESRRILEKLLTSINEAITSKAYEIIHRDNDKALEELIKTPNYVLEELVSPTRRFFASFSLFSHLPDTIIADQYFKIIPLQRLNEKPEVLGVISDLTCDSMGEYSSFITFLPNNIEYETEDLFTSLDHKLMFIPGKTLRLKGVPLHIPRKNEDYYIAFLDTGAYQDMLSMNHNLLNGYPEIIIDIINDNLKIIYENLESAENYPL | failed
5 | MVWHYSNIMHKKSKAQLQDYFKDLTAIGNASSEQMEANRDGIQGETEENINPPPQNPKKRLSLPNLSSPSLAAEAENLESAGQPGSDYLSNSFGQANKANVAVAPVNSDYIAPEKLEDQPGDFFGGKRWFWLGGILVLLVGGTALTLPKALEMVNGWRQEAQLKAYEQEQHQDSEVLRLALLPPDQRRSKLEAIANQEVLSLERSRARFLLAGDLLAEFEGGPALRVLEGLEVQYPVLAPYILLMRGRGYQLSNENDQAEATWQDILDQYPDSPVVVNALENLGSLDETYWQQAIADHPGHPRTLAILHQQLESEPNALEIQRQILQNHPTDGRTAAVINSLTANRQGELTPEDWQAMGDNFWHRRIYNQAIAPYEKAPSNARNLYRLARAQQISKLDNEAKENYRQLIATYPDSEETALALRRLAELVPPREGVQYLQQLEQQFPDQGASALAARIDLLAKFDANQAQQARQALLQKYPNSDAAADYRWRQAQEFAKAGNYTEAWRWAKEIANQNPQSDVTPKAIFWIGKWAQQLGRSADSKAAFETVLAKYPQSYYAWRSAVLLGWQVGDFNSVRFLNPPVTVPDQRPLPPAGSPTFRELYRLAQDQEAIELFNAEVRARAEGEATPELTVNEGFTEALLKLTQQEYLQGINQVLNLRNPEDPEQRKQWEELRSTRDYWQTLFPFPYQQLIFEWSEKRQVNPFLVTALIRQESRFEKNIQSPVGATGLMQIMPATAEWIAPQIGLKEYSLTDPTDNVNMGTWYFDHTHKTYNNNSALAVASYNAGPGNVAKWLQEFNNADPDLFVERIPFAETKGYVESVFGNYWNYLRIYDPDVEKLMGQVGKN | failed
6 | MVWPHLYFSELEAQHIMTSIISSSWFKFSVVAASITGIMMLSGCAKKEAQDLTTLNIGFQKYGLLPIVKERGELDKILKKEGITIKWVEFPAGPQLLEGLNVGSVVFGEAGEAPPIFAQAANSNLVYVANQPAAPNAEALIVQKNSSVHSVQDLKGKRIALNKGSNVHYLLLKLLEKNHLTLNDIQVVYLPPADARAAFEKGAVDAWVIWDPFFAAAEQQIGARVIATGQDLVSNHQFYLADRKFAQNHPEVLKTLVKELNQSTEWVKTHQDDAAKLLEKPTALDFNILKTSISRMGFGVTPLSNTVINEQQQVADAFYQQKLIPQPLKIQDAILKGEIK | failed
7 | MVYKNILVGLDGSSQADNAFKVACGLANALSADLHPIWIVNRDRGMDSSFGVNEDFYRDQYHQVQDKLVSYVEDAKKAGLKVTGEALVGNIKLVLANEYPKEHGIDLIVLGNTGLNTVEKLVVGSHTSYVIRNSACDVLVVK | failed
8 | MVYPRMGRVPLPPKGAQHYTTMCQFCNVGCGYDVYVWPAGAEGSPEPGGHGIEYKIVDEAYGRNLVKQPDFTKEHTGLSAEEGEPWISEAMVVKTIRRTWERGRGTGGWREVYVAQVPSPECPINWGNHSVRGGTQAERIWSPWNIAGERRLTKPLVRFGGRLEPVSWEYAIDLVARVVKGVIDKWGIERPGWGKEGHAVFAHRMDHGGGGGGGMIFNTVVGLFFFYGVRTAFARIHNRPFFGPENPAAGDAGPGAMNTSYHDLRLADTIILWGNNPYSTATVMFVKHVLDNLRGATKAEKQRWFNPGEPVIDSRIIIVDPRRTETVEAAEAAAGKDRVLHLQVKPGTDIVLANAIARVIYERYGDVVEEFVNHYRSAAGWGFKWDEEGFQKYVSEALQVGEETLDEVLAEAESITGVPRDKIELAAKWIAERKEGGYPKRVWLMYEKGIIWNQNYRSIYSLFDLCMIAGATRGLPGCGCQRQGGHQEGFASPAPPPPPWTDERHHIAYPDKSLYDEYYNTKYPRADFYMPTTDFRLANGEGKVLWVIDMDNYRLAPNSQRLKAVVGDRAWRVTRYVFAEAYANVGGKESEPNYDPNALEPVITTPPSSREYAEKVLQALEETGGLFVIVEDIYPTFMVEDAHVVLPAAFNNGEWPDVRMGVHERRFRIADAWLDPPGEAKPDWWILANVAKRIVELYEEEGRGGDPVAERFRKAFKPIWDAMEANARDPTVEVENEIFKTYIANADEAYARLGVHWEVQYWTPEFKKLDLNILRKLRTIGTVLPITKLDVKPDGTIEVRGVVNIMEPALNDTYREEVVVVKPDGTIVRRIEVVPSNETVRSYVPGHLKPWPAVWDKYPPYVDELIRKGYKYWVVNGRYNAIWQTGYADPNVVEIMARHPMNIVQVNPEDAAKEGLENGDIVVIYNDYGSTTAMVWVTRVVAPGTIFLIMAHPKAVGANAVTTPSVDPAAQNPDYKLTLANLRKIGRADETIIKKVTFKDIRFAVR | failed
9 | MVYSTTTGRFCGLFCLRDQMPVSTNRHPYSENTMEIIVNGEARAATPMSMLELLRSLDIDPRRVAVELNHDILPKGEYESTILNDGDRIEIVHFVGGGLEHHHHHH | not failed
10 | MVYVGTSGFSFEDWKGVVYPEHLKPSQFLKYYWAVLGFRIVELNFTYYTQPSWRSFVQMLRKTPPDFYFTVKTPGSVTHVLWKEGKDPKEDMENFTRQIEPLIEEQRLKMTLAQFPFSFKFSRKNVEYLEKLRESYPYELAVEFRHYSWDREETYEFLRNHGITFVVVDEPKLPGLFPYRPITTTDYAYFRFHGRNERWFEAEGEERYDYLYSEEELKTLFEDVVELSRRVKETYVFFNNCYKGQAAINALQFKKMLEERV | not failed
11 | MWDETVAGPKPEHGLGRLRNKITTQPLDIKGVGEGSSSKTVAAVAGSPGTPTTPGSARKENVWRSVFHPGSNIATRGMGTNLFDKPSHPNSPTVYDWLYSDDTRSKHR | failed
12 | MWHIFERFVNEYERWFLVHRFAYLSELQAVKCLLPEGRGVEIGVGTGRFAVPLKIKIGVEPSERMAEIARKRGVFVLKGTAENLPLKDESFDFALMVTTICFVDDPERALKEAYRILKKGGYLIVGIVDRESFLGREYEKNKEKSVFYKNARFFSTEELMDLMRKAGFEEFKVVQTLFKHPSELSEIEPVKEGYGEGAFVVIRGTKK | not failed
13 | MWHYLFLAIYVTMIIGIATVTKKRIKGVSDFLLGGRNVNPWMSAFSYGTAYFSAVIFIGFAGKMGWSFGIPTMWIVVGNTIIGSFLAWQVLGKKTREMTQRLGASTMPSFLEKRYKSKNLESLTAFIIFFFLVPYSASIYKGLNFLFEGFGISPMNAYILMAALTAIYLYFGGFIAATLADFVQGCIMVIGVLLMVFFLSSNPEVGGFSGMLSNLSSIDPILVSPISEASFIPIIGLALLTSIGSWGLPQMIHKFYTIKSEKAAVSAKWVSTAFAFIITFGAAYIGTVSRLFYPDAASKVAAGLTSPDMIVPKIMEIALPDWVAALILVLVISASMSTLASLVLASSSVVSIDFVKGRLKPDLSDKNTMILMRLLCVLFVALSFVLAIVPNSYVLSLMALSWGLVSGCLLAPYFLGLYWKRTTKEGVWAGITSALAIMLGGACYFGVNSVYMPAVGSLAMIAPIFVVMAVSLITKPFESEHIDYIFNKK | failed
14 | MWITGASGGLGERIAYLCAAEGAHVLLSARREDRLIEIKRKITEEWSGQCEIFPLDVGRLEDIARVRDQIGSIDVLINNAGFGIFETVLDSTLDDMKAMFDVNVFGLIACTKAVLPQMLEQKKGHIINIASQAGKIATPKSSLYSATKHAVLGYSNALRMELSGTGIYVTTVNPGPIQTDFFSIADKGGDYAKNVGRWMLDPDDVAAQITAAIFTKKREINLPRLMNAGTKLYQLFPALVEKLAGR | failed
15 | MWITQETWLKALPWNKKRYRSQIMEVICKHYTPLDIASQAIRTCWQSFEYSDDGGCKDKELIHRVGNIFRHSSTLEHLYYNFEIKGLSRGALQELSRHRIASLSVKSSRYTLRELKEVESFLPLNETNLERAKEFLVFVDNEKVNAMSVLALENLRILLSEHNIKNDLAKYAMPESYKTHLAYSINARSLQNFLTLRSSNKALKEMQDLAKALFDALPGEHQYLFEDCLKH | failed
16 | MWKRLLIVSAVSAAMSSMALAAPLTVGFSQVGSESGWRAAETNVAKSEAEKRGITLKIADGQQKQENQIKAVRSFVAQGVDAIFIAPVVATGWEPVLKEAKDAEIPVFLLDRSIDVKDKSLYMTTVTADNILEGKLIGDWLVKEVNGKPCNVVELQGTVGASVAIDRKKGFAEAIKNAPNIKIIRSQSGDFTRSKGKEVMESFIKAENNGKNICMVYAHNDDMVIGAIQAIKEAGLKPGKDILTGSIDGVPDIYKAMMDGEANASVELTPNMAGPAFDALEKYKKDGTMPEKLTLTKSTLYLPDTAKEELEKKKNMGY | failed
17 | MWKRTITVPAPYDFAHVLDRLSLDPLMAVDVERQRITVPLHLDGLKIPVVIESIGTKEAPRFVVLAPHSNRQEDILERVSHLFQWQTPLAPVYDHFRTTELAPLFARYEGLPLVLDFDLYFCLMKCFIHQQLHLKVGYRLTERFVKTFGEERDGVWFYPRPEDIAARSYDDLRALQLSRRKAEYIVDVSRLIADGTLRLDDLEQMEDGEVMERLTAIRGIGPWTVQNFLLFGLGRPNVFPPADIGLQRAVERLFQLPKRPTASELALLGERWKPYTSYAALYLWRSIE | failed
